Among the data in patent US20100240056 are binding signal values, retold here.

The data set relates to EcR-B/VP16-USP heterodimer (Leptinotarsa decemlineata). Kind of data set: EMSA. Conditions: reference band for densitometry; little change with agonist. In general terms: In EMSA bound probe runs differently from free probe, usually more slowly.

As for hsp27 EcRE probe, the binding signal stood at 1.
